Target: T1, wild-type human CCR7 (pcDNA3.1 Neo-hCCR7, 20100121357) (human, UniProt P32248 25-378)
T1 construct: Expressed on transfected 293T, CHO AM1/D or HEK293T cells; also called huCCR7; CCR7 receptor
T1 sequence: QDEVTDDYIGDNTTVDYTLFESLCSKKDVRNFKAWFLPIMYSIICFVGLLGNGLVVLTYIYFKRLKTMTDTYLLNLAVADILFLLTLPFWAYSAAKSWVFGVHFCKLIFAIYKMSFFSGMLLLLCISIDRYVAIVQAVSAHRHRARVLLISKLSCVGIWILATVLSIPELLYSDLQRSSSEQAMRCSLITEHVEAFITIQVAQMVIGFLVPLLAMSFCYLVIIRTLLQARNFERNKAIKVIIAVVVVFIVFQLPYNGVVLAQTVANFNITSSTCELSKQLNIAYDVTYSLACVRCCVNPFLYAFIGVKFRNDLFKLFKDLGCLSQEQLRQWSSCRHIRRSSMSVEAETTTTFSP
Assay: hybridoma screening on cells expressing human CCR7

binding result: binds
B1: antibody 6E1.2 (antibody, human IgG2, lambda, V domains shown)
VH: QGQLVESGGGVVQPGRSLRLSCAASGFTFRSYGMHWVRQAPGKGLEWVAVIWYDGSKKYYADSVKGRFTISRDNSKNTLFLQMNSLRAEDTAVYYCARDGGIAAFLQDNWFDPWGQGTLVTVSS
VL: SYELTQPPSVSVSPGQTASITCSGNKLGDKYASWYHQKPGQSPVLVIYQDNKRPSGIPERFSGSNSGNTATLTISGTQTMDEADYFCQAWDRTVVFGGGTKLTVLG
notes: Human antibody from XenoMouse hybridoma; Light = 26 and heavy = 58 is inferred from the order of the listing

Source: patent US20170342155A1 (Amgen, published 2017)
